These results are taken from patent US20170029530A1 (AbbVie / Abbott, published 2017).

“And” between values parts separate entries of the source, which are not always exact repeats. Identical values can stand only once. A value given as a limit tells only on which side of the number the result lay.

One experiment has as its target T1, hDPEP3-ECD-His (human, UniProt Q9H4B8 36-463).
T1 construct: also called hDPEP3-His; monomeric hDPEP3-His antigen; not shown: histidine tag
T1 sequence: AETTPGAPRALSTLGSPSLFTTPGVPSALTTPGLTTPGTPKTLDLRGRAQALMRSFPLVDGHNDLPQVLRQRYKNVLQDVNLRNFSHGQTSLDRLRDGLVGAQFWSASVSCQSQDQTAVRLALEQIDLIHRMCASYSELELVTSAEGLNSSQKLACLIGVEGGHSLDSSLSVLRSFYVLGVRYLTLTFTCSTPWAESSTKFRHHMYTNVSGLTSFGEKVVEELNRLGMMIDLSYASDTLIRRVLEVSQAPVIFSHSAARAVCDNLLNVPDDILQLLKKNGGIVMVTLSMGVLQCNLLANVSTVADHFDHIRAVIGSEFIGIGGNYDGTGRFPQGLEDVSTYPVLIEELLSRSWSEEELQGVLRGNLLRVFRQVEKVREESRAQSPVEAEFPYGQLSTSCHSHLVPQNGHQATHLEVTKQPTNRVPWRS
Put plainly: BLI ForteBio RED, 200 nM hDPEP3-His, estimated grade. The protocol:
The affinity of the antibodies for hDPEP3-His was qualitatively determined from kinetics curves generated with a ForteBio RED as follows. Anti-DPEP3 antibodies were immobilized onto anti-mouse Fc capture biosensors with a contact time of 3 mins. and a flow rate of 1000 rpm. The captured antibody loading from baseline was constant at 0.3-1 units. Following antibody capture and 30 second baseline, the biosensors were dipped into a 200 nM solution of hDPEP3-His for a 4 min. association phase followed by a 3 min. dissociation phase at a shaking rate of 1000 rpm. The biosensors were regenerated by dipping into 10 mM glycine, pH 1.7 following each cycle. The data was processed by subtracting a control mouse IgG surface response from the specific antibody response and data was truncated to the association and dissociation phase. The association and dissociation curves were used to qualitatively estimate the affinities of selected antibodies. […] A designation of “ND” means that the estimated KD was not determined.

The target of experiment [1] is T2, hDPEP2 ECD with histidine tag (human, UniProt Q9H4A9 33-463).
T2 construct: also called hDPEP2-His; not shown: histidine tag
Put plainly: ELISA, coated antigen. As for the experimental part: (§1) The anti-DPEP3 antibodies were screened by ELISA for cross-reactivity with mouse, rat and cynomolgus DPEP3 and for cross reactivity to hDPEP2, the closest DPEP3 family member. ELISA was conducted as follows. Plates were coated with purified mouse, rat or cynomolgus DPEP3-His or hDPEP2-His at 0.3 μg/mL in 0.2 M carbonate-bicarbonate buffer, pH 9.4 overnight at 4° C. The protein solution was removed and the wells were blocked with 1% (w/v) BSA in PBS (PBSA), 100 μL/well for 1 hour at 37° C. Anti-DPEP3 antibody or a mouse isotype control antibody was then added at 1 μg/mL in 50 μL PBSA for 1 hour at room temperature. After washing with water, 50 μL/well HRP-labeled goat anti-mouse IgG antibody diluted 1:10,000 in PBSA was added for 30 min at room temperature. The plates were washed and developed by the addition of 40 μL/well of the TMB substrate solution (Thermo Scientific) at room temperature. An equal volume of 0.2 M H₂SO₄ was added to stop substrate development. The samples were then analyzed by spectrophotometer at OD 450. […] The cross reactivity results for exemplary DPEP3-specific antibodies can be seen in FIG. 4.

Experiment [2] deals with T3, rat DPEP3 ECD with histidine tag (rat, UniProt Q5U2X4 36-459, limits assumed).
T3 construct: also called rDPEP3-His; ratDPEP3-His; not shown: histidine tag
T3 sequence: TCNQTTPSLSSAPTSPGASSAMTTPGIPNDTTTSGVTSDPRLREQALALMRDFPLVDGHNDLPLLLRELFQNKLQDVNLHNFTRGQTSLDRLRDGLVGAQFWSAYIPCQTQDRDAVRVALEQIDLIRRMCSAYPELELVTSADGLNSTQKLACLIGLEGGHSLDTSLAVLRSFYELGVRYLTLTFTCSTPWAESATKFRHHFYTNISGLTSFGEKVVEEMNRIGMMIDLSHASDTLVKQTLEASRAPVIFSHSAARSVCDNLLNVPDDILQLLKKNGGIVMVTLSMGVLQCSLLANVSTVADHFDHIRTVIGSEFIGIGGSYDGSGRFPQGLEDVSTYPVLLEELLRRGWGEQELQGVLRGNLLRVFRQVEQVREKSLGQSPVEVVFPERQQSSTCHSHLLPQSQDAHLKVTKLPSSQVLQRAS
Put plainly: ELISA, coated antigen. As for the experimental part: as §1

In the next experiment the target is T4, mDPEP3 (limits assumed).
T4 construct: also called mouse DPEP3-His; mouse DPEP3 ECD with histidine tag
T4 single chain: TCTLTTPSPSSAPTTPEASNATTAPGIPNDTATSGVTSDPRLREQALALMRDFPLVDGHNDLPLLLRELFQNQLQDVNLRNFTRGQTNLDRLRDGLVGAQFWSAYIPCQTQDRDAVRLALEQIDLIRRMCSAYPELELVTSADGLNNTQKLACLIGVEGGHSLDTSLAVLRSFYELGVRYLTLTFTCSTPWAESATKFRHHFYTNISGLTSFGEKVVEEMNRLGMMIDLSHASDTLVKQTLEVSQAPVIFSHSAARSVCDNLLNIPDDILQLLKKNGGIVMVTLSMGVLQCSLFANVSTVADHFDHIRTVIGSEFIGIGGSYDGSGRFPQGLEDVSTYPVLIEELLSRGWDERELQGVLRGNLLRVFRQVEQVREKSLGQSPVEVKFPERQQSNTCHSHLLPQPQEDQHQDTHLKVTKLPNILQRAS
Put plainly: ELISA, coated antigen. The protocol: as §1

T2 sequence (Q9H4A9 33-463): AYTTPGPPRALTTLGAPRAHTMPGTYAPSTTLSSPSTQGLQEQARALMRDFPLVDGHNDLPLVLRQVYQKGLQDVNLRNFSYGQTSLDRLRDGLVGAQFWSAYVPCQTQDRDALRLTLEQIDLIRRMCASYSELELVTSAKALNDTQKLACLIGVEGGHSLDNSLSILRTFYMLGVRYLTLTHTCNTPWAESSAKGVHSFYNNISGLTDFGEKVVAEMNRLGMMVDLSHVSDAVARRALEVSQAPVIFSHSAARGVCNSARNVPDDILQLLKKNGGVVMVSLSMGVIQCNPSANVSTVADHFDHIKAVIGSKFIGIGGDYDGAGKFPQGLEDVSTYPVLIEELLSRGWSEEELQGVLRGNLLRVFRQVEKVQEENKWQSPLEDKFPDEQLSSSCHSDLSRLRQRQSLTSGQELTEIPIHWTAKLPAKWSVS

B1: SC34.63 (antibody, mouse IgG1)
light chain: DIVMSQSPSSLAVSVGEKVTMSCKSSQSLLYSKYQKNYLAWYQQKPGQSPKLLIYWASTRESGVPDRFTGSESGTDFTLTISSVKAEDLAVYYCQQYYRYPLTVGAGTKLELK
heavy chain: QVQLQQSGVELARPGASVKLSCKASGYTFTSYGIDWVKQRTGQGLEWIGETYPGRGDTYYNENFKGKATLTTDKSSSTAFLQLSSLTSEDSAVYFCARVHDYGSWFPYWGQGTLVTVSA
Take B1: the Kd in the experiment with hDPEP3-ECD-His is < 5 nM. Besides, the binding result (in experiment [1]; in experiment [2]; with mDPEP3) was “no binding (tested: 1 ug/mL)” each time.

B2: SC34.7 (antibody, mouse IgG1, V domains shown)
VH: QVQVQQSGAELARPGASVKLSCKASGYTFTSYGINWVKQRTGQGLEWIGEIYPGSGNAYYNEKFKVKAKLTTDNSSRTAYMQLINLTSEDSAVYFCARVHDYGSWFPYWGQGTLVTVSA
VL: DIVMSQSPSSLAVSVGEKVTMSCKSSQSLLYSRYQKNYLAWYQQKPGQSPKLLIYWASTRESGVPDRFTGSGSGTDFTLTISSVKAEDLAVYYCHQYYRYPLTFGAGTKLELK
notes: also called SC34.07
As to B2, in the experiment with hDPEP3-ECD-His, the Kd was ≥ 5 nM and ≤ 10 nM. The binding result (in experiment [1]; in experiment [2]; in the experiment with mDPEP3) was “no binding (tested: 1 ug/mL)” each time.

B3: SC34.95 (antibody, mouse IgG1)
light chain: DIVLSQSPSSLAVSVGEKVTMSCKSSQSLLNSRDRKNYLAWCQQKPGQSPKVMIYWASTRESGVPDRFTGSGSGTDFTLTISSVKAEDLAVYYCQQYYSYPLTVGAGTKLELK
heavy chain: QVQVKQSGAELARPGASVKLSCKASGYTFTSYAINWLKQRTGQGLEWIGEIYPGSGNTYYNESFKNKATLTTDKSSTTAYMQLNSLTSEDSAVYFCARVHDYGSWFPYWGQGTLVTVSA
B3: the Kd with hDPEP3-ECD-His is < 5 nM. Further, the binding result (in experiment [1]; with mDPEP3) was “no binding (tested: 1 ug/mL)” in each case.

B4: SC34.91 (antibody, mouse IgG1, V domains shown)
VH: QVQLQQSGAELARPGASVKLSCKASGYTFRSYAISWVKQRTGQGLEWIGEIYPGSGDTYYNENFKGKATLTTDKSSSTAYMQLSSLTSEDSAVYFCARVHDNGSWFPYWGQGTLVTVSA
VL: DIVMSQSPSSLAVSVGEKVTMSCKSSQSLLYSTYQKNYLAWFQQKPGQSPKLLIYWASTRESGVPDRFTGSGSGTDFTLTISSVKAEDLAVYYCQQYYRYPLTFGAGTKLELK
In the case of B4, in the experiment with hDPEP3-ECD-His, the Kd is < 5 nM. Moreover, the binding result (in experiment [1]; in experiment [2]; with mDPEP3) was “no binding (tested: 1 ug/mL)” each time.

B5: SC34.76 (antibody, mouse IgG1, V domains shown)
VH: QVQLQQSGAELARPGASVKLSCKTSEYTFTSYAINWVKQRTGQGLEWIGEVYPGSGNTYYNEKFKGKAILTTDKSSSTGYMQLSNLTSEDSAVYFCARVHDYGSWFPYWGQGTLVTVSA
VL: DIVMSQSPSSLAVSVGERVTMNCKSSQSLFYSRYQKNYLAWYQQKPGQSPKLLIYWASTRESGVPDRFTGSGSGTDFTLTISSVKAEDLAVYYCQQYYRYPLTFGAGTKLELK
Consider B5, for which the Kd with hDPEP3-ECD-His was < 5 nM. Moreover, the binding result (in experiment [1]; in experiment [2]; with mDPEP3) was “no binding (tested: 1 ug/mL)” in each case.

B6: SC34.20 (antibody, mouse IgG1, V domains shown)
VH: QVQLQQSGSELARPGASVKLSCKASGYTFRSYAISWVRQRTGQGLEWIGEIYPESGNTDYNAQFKGKATLTTDKSSSTAYMQLSSLTSEASAVYFCARVHDYGSWFPYWGQGTLVTVSA
VL: DIVMSQSPSSLTVSVGEKVTMSCKSSQSLLYSTYQKNYLAWFQQKPGQSPKLLIYWASTRESGVPDRFTGSGSGTDFTLTISSVKAEDLAVYYCQQYYRYPLTFGAGTKLELK
For B6, the Kd in the experiment with hDPEP3-ECD-His was ≥ 5 nM and ≤ 10 nM. For the same molecule, the binding result (in experiment [1]; in experiment [2]; with mDPEP3) was “no binding (tested: 1 ug/mL)” throughout.

B7: SC34.83 (antibody, mouse IgG2a, V domains shown)
VH: QVQLQQSGAELVKPGASVKISCKASGYAFSHSWMNWVKQRPGKGLEWIGRIYPGDGDINYNGKFKGKATLTADKSSSTAYMQLSSLTSEDSAVYFCARRGPSYNNYCFDYWGQGTTLTVSS
VL: QIVLIQSPAIMSASPGENVTMTCSASSSVSYMHWYQQKSGTSPKRWIYDTSKLASGVPARFSGSGSGTSYSLTISSMEAEDAATYYCQQWNSYPPTFGAGTKLELK
Consider B7, for which, in the experiment with hDPEP3-ECD-His, the Kd is > 10 nM. Also, the binding result in experiment [1] is “no binding (tested: 1 ug/mL)”.

B8: SC34.67 (antibody, mouse IgG2a, V domains shown)
VH: QVQLQQSGAELARPGASVRLSCKASGYTFTSYGINWVKQRTGQGLEWIGEIYPGSGDSYYNKTFKGKAILTTDKSSSTAYMQLSSLTPEDSAVYFCARVHDYGSWFPYWGPGALVTVSA
VL: DMVMSQSPSSLAVSVGEKVALSCKSSQSLLHSRDQKNYLAWYQQKPGQSPKLLIHWASTRESGVPARFTGSGSGTDFTLTISSVKAEDLAVYYCQQSYRYPLTFGAGTKLELK
As for B8, the Kd with hDPEP3-ECD-His is < 5 nM. Moreover, the binding result (in experiment [1]; in experiment [2]; with mDPEP3) was “no binding (tested: 1 ug/mL)” each time.

B9: SC34.4 (antibody, mouse IgG2b, V domains shown)
VH: QVQLQQSGAELARPGASVKLSCKASGYTFTSYGINWVKQRTGQGLEWIGEIYPGSGNIYYNEKFKGKAILTTDKSSNTAYMQLSSLTSEDSAVYFCARVHDYGSWFPYWAQGTLVTVSA
VL: DIVMSQSPSSLTVSVGEKVTMSCKSSQSLLYSRNQKNYLAWYQQKPGQSPKLLIYWASTRDSGVPDRFTGTGSGTDFSLTISSVKTEDLAVYYCHQHYRYPLTFGAGTKLELK
notes: also called SC34.04
For B9, the Kd in the experiment with hDPEP3-ECD-His is ≥ 5 nM and ≤ 10 nM. In addition, the binding result (in experiment [1]; in the experiment with mDPEP3) was “no binding (tested: 1 ug/mL)” throughout.
